Test results from patent US7220822.

Assays:
[1] = target: CD80-Ig (extracellular domain of CD80 fused with the constant region of mouse IgG1 heavy chain) (mouse); experiment: SPR competitive kinetics, peptide 2 × 10^5 nM with 3.2 µM CD28-Ig (competitor) over captured CD80-Ig
[2] = target: CD80-Ig (extracellular domain of CD80 fused with the constant region of mouse IgG1 heavy chain) (mouse); experiment: SPR competitive kinetics, peptide 0.25 × 10^5 nM with 3.2 µM CD28-Ig (competitor) over captured CD80-Ig
[3] = target: CD80-Ig (extracellular domain of CD80 fused with the constant region of mouse IgG1 heavy chain) (mouse); experiment: SPR direct kinetics, peptide 3.00E+03 nM over immobilized CD80-Ig
[4] = target: CD80-Ig (extracellular domain of CD80 fused with the constant region of mouse IgG1 heavy chain) (mouse); experiment: SPR competitive kinetics, peptide 0.5 × 10^5 nM with 3.2 µM CD28-Ig (competitor) over captured CD80-Ig
[5] = target: CD80-Ig (extracellular domain of CD80 fused with the constant region of mouse IgG1 heavy chain) (mouse); experiment: SPR competitive kinetics, peptide 3 × 10^5 nM with 3.2 µM CD28-Ig (competitor) over captured CD80-Ig
[6] = target: CD80-Ig (extracellular domain of CD80 fused with the constant region of mouse IgG1 heavy chain) (mouse); experiment: SPR competitive kinetics, average over peptide concentrations; competitor CD28-Ig
[7] = target: CD80-Ig (extracellular domain of CD80 fused with the constant region of mouse IgG1 heavy chain) (mouse); experiment: SPR direct kinetics, peptide 7.50E+02 nM over immobilized CD80-Ig
[8] = target: CD80-Ig (extracellular domain of CD80 fused with the constant region of mouse IgG1 heavy chain) (mouse); experiment: SPR direct kinetics, peptide 6.00E+03 nM over immobilized CD80-Ig
[9] = target: CD80-Ig (extracellular domain of CD80 fused with the constant region of mouse IgG1 heavy chain) (mouse); experiment: SPR competitive kinetics, peptide 1 × 10^5 nM with 3.2 µM CD28-Ig (competitor) over captured CD80-Ig
[10] = target: CD80-Ig (extracellular domain of CD80 fused with the constant region of mouse IgG1 heavy chain) (mouse); experiment: SPR direct kinetics, peptide 3.75E+02 nM over immobilized CD80-Ig
[11] = target: CD80-Ig (extracellular domain of CD80 fused with the constant region of mouse IgG1 heavy chain) (mouse); experiment: SPR (BIACORE), EL CD28 peptide injected over amine-coupled CD80-Ig (1488 RU); slope of ln dR/dt vs t plotted against the peptide concentration, ka is the slope of this plot
[12] = target: CD80-Ig (extracellular domain of CD80 fused with the constant region of mouse IgG1 heavy chain) (mouse); experiment: SPR direct kinetics, peptide 1.50E+03 nM over immobilized CD80-Ig
[13] = target: CD80-Ig (extracellular domain of CD80 fused with the constant region of mouse IgG1 heavy chain) (mouse); experiment: SPR (BIACORE), direct binding to immobilized CD80-Ig, linear regression plot
[14] = target: CD80-Ig (extracellular domain of CD80 fused with the constant region of mouse IgG1 heavy chain) (mouse); experiment: SPR competitive kinetics, peptide 0.125 × 10^5 nM with 3.2 µM CD28-Ig (competitor) over captured CD80-Ig
[15] = target: CD80-Ig (extracellular domain of CD80 fused with the constant region of mouse IgG1 heavy chain) (mouse); experiment: SPR (BIACORE), peptide over amine-coupled CD80-Ig, 37 C

Binder: Ac-KIEFMYPPPYLDNERSNGTI-NH2 [EL-CD28 (end-blocked L CD28 peptide mimetic)]
- Kd [1]: 1560 nM
- koff [1]: 0.0862 s⁻¹
- kon [1]: 55100 M⁻¹ s⁻¹
- Kd [2]: 3.36 µM
- koff [2]: 0.0195 s⁻¹
- kon [2]: 3360 M⁻¹ s⁻¹
- koff [3]: 0.214 s⁻¹
- kon [3]: 137000 M⁻¹ s⁻¹
- Kd [4]: 5 µM
- koff [4]: 0.316 s⁻¹
- kon [4]: 63200 M⁻¹ s⁻¹
- Kd [5]: 2920 nM
- koff [5]: 6.89 s⁻¹
- kon [5]: 2.36e+06 M⁻¹ s⁻¹
- Kd [6]: 2790 nM
- koff [7]: 0.274 s⁻¹
- kon [7]: 110000 M⁻¹ s⁻¹
- koff [8]: 0.273 s⁻¹
- kon [8]: 111000 M⁻¹ s⁻¹
- Kd [9]: 2540 nM
- koff [9]: 0.0803 s⁻¹
- kon [9]: 31600 M⁻¹ s⁻¹
- koff [10]: 0.399 s⁻¹
- kon [10]: 246000 M⁻¹ s⁻¹
- kon [11]: 113000 M⁻¹ s⁻¹
- koff [12]: 0.242 s⁻¹
- kon [12]: 115000 M⁻¹ s⁻¹
- Kd [13]: 2340 nM
- Kd [14]: 1380 nM
- koff [14]: 0.101 s⁻¹
- kon [14]: 73400 M⁻¹ s⁻¹
- maximum response units [15]: 668 RU
